# Article PMC6402485 (Biochemistry, 2013)
# Read-outs that look alike come from different tables or passages of the source.
# B1: Wild type SgrAI ENase (enzyme, Streptomyces griseus)
# chain: PFTYSIEATRNLATTERCIQDIRNAPVRNRSTQFQLAQQNMLAYTFGEVIPGFASAGINGMNYRDVIGRPVENAVTEGTHFFRDDFRVDSNAKAKVAGDIFEIVSSAVMWNCAARWNSLMVGEGWRSQPRYSRPTLSPSPRRQVAVLNLPRSFDWVSLLVPESQEVIEEFRAGLRKDGLGLPTSTPDLAVVVLPEEFQNDEMWREEIAGLTRPNQILLSGAYQRLQGRVQPGEISLAVAFKRSLRSDRLYQPLYEANVMQLLLEGKLGAPKVEFEVHTLAPEGTNAFVTYEAASLYGLAEGRSAVHRAIRELYVPPTAADLARRFFAFLNERMELVNG
# What was measured:
# [1] = biological target: the molecule itself; test: native MS
# [2] = biological target: the molecule itself; test: native MS; remark: listed apart in the source
protein,measurement,setting,value
B1,stoichiometry N,[1],2
same,stoichiometry N,[2],38
